Results: the supplement of paper PMC11865577

Key:
Assay in all cases: pull-down binding Z-score (relative to library population); higher = stronger binding
[1] = test system: TO-3-N3-2 (biotin conjugate); conditions: RNA library: Library-2
Method in brief: (§1)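 Cy5- or Cy3-end-labelled RNA library (1 μg) was heat-folded in phosphate/NaCl/KCl buffer and incubated 60 min at 25 °C with streptavidin beads carrying 100 pmol biotin-conjugated small molecule. After three washes, bound RNA was eluted in hot SDS and hybridised 20 h at 55.5 °C to a DNA barcode microarray. Binding was scored by subtracting a beads-only control, averaging barcoded replicate probes after dropping highest and lowest, and converting to a Z-score against library mean and standard deviation.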

TO-N3 (biotin conjugate) = conditions: RNA library: Library-2
Method in brief: as §1

[2] = test system: TO-N3-2 (biotin conjugate); conditions: RNA library: Library-2
Method in brief: as §1

[3] = test system: G-clamp-N3 (biotin conjugate); conditions: RNA library: Library-1 (pre-miRNA loops + repeats)
Method in brief: as §1

[4] = test system: TO-3-N3 (biotin conjugate); conditions: RNA library: Library-2
Method in brief: as §1

Sequence: AUUAGACAGAAAAAAGUUAGACACAAAAAAUUGUGUCUAAU [hsa-mir-4759]
- pull-down binding Z-score [1]: 0.561
- pull-down binding Z-score (TO-N3 (biotin conjugate)): 0.136
- pull-down binding Z-score [2]: -0.525
- pull-down binding Z-score [3]: -0.0386
- pull-down binding Z-score [4]: 0.284

Sequence: CAGGGGUUCUGAUAAACCCUUC [hsa-mir-6738]
- pull-down binding Z-score [1]: -0.3
- pull-down binding Z-score (TO-N3 (biotin conjugate)): 0.458
- pull-down binding Z-score [2]: 0.161
- pull-down binding Z-score [3]: -0.182
- pull-down binding Z-score [4]: 0.622

Sequence: GUUGGCUCAAGAAAGGGAGAUAGAUGGUAGCCC [hsa-mir-6884]
- pull-down binding Z-score [1]: 1.51
- pull-down binding Z-score (TO-N3 (biotin conjugate)): 1.94
- pull-down binding Z-score [2]: 3.94
- pull-down binding Z-score [3]: 0.473
- pull-down binding Z-score [4]: 1.71

Sequence: UUCUGCUGUGCCUUACAGCAGUAGAA [hsa-mir-3179-4_3179-1_3179-3_3179-2]
- pull-down binding Z-score [1]: -0.383
- pull-down binding Z-score (TO-N3 (biotin conjugate)): 0.0349
- pull-down binding Z-score [2]: -0.695
- pull-down binding Z-score [3]: 0.67
- pull-down binding Z-score [4]: 0.188

Sequence: AGGAGUUCACU [hsa-mir-1183]
- pull-down binding Z-score [1]: -0.383
- pull-down binding Z-score (TO-N3 (biotin conjugate)): -0.253
- pull-down binding Z-score [2]: 0.0749
- pull-down binding Z-score [3]: -0.952
- pull-down binding Z-score [4]: -0.276

Sequence: UUUCUCUUGUCCAAAGGAAAAGAAG [hsa-mir-524]
- pull-down binding Z-score [1]: -0.376
- pull-down binding Z-score (TO-N3 (biotin conjugate)): -0.636
- pull-down binding Z-score [2]: -0.747
- pull-down binding Z-score [3]: -0.493
- pull-down binding Z-score [4]: -0.644

Sequence: UAUGACCAGGCCAUAGUAAACAUCAUA [hsa-mir-4744]
- pull-down binding Z-score [1]: 0.312
- pull-down binding Z-score (TO-N3 (biotin conjugate)): -0.247
- pull-down binding Z-score [2]: -0.124
- pull-down binding Z-score [3]: 1.78
- pull-down binding Z-score [4]: -0.475

Sequence: CAGCAGCAGCAGCAGCAGCAGCAGCAGCAGCAGCAGCAGCAGCAGCAG [r(CAG)16]
- pull-down binding Z-score [1]: -0.0193
- pull-down binding Z-score (TO-N3 (biotin conjugate)): 1.6
- pull-down binding Z-score [2]: 1.29
- pull-down binding Z-score [3]: 1.2
- pull-down binding Z-score [4]: 0.922

Sequence: GCCAUCUGGUUGUGACAUCACUGAUGGC [hsa-mir-7155]
- pull-down binding Z-score [1]: 0.0839
- pull-down binding Z-score (TO-N3 (biotin conjugate)): 0.932
- pull-down binding Z-score [2]: 0.128
- pull-down binding Z-score [3]: -0.231
- pull-down binding Z-score [4]: 1.09

Sequence: AAUAAAGUAUGUCCACAGCUGAAAGGACAUACUUUAUU [hsa-mir-4464]
- pull-down binding Z-score [1]: -0.236
- pull-down binding Z-score (TO-N3 (biotin conjugate)): -1.18
- pull-down binding Z-score [2]: -1.28
- pull-down binding Z-score [3]: -0.77
- pull-down binding Z-score [4]: -0.7

Sequence: AACUGUGCGGCCGGCCACACCGUCACACCGGGU [hsa-mir-8083]
- pull-down binding Z-score [1]: 0.611
- pull-down binding Z-score (TO-N3 (biotin conjugate)): 1.44
- pull-down binding Z-score [2]: 1.28
- pull-down binding Z-score [3]: -0.324
- pull-down binding Z-score [4]: 1.14

Sequence: UGGUGCAAUAAUUGG [hsa-mir-1302-7]
- pull-down binding Z-score [1]: 0.492
- pull-down binding Z-score (TO-N3 (biotin conjugate)): 0.4
- pull-down binding Z-score [2]: 0.245
- pull-down binding Z-score [3]: 1.95
- pull-down binding Z-score [4]: 0.418

Sequence: UUUACAUGCUACAGUCAAGAUGCGAA [hsa-mir-15b]
- pull-down binding Z-score [1]: 0.0265
- pull-down binding Z-score (TO-N3 (biotin conjugate)): 0.275
- pull-down binding Z-score [2]: -0.147
- pull-down binding Z-score [3]: -0.982
- pull-down binding Z-score [4]: 0.288

Sequence: UUGUGUCCAUCAUGCAACAA [hsa-mir-802]
- pull-down binding Z-score [1]: -0.248
- pull-down binding Z-score (TO-N3 (biotin conjugate)): -0.144
- pull-down binding Z-score [2]: 0.396
- pull-down binding Z-score [3]: -1.17
- pull-down binding Z-score [4]: -0.49

Sequence: GGACUUGCGGUUCA [hsa-mir-8057]
- pull-down binding Z-score [1]: -0.281
- pull-down binding Z-score (TO-N3 (biotin conjugate)): -0.0278
- pull-down binding Z-score [2]: 0.109
- pull-down binding Z-score [3]: -1.11
- pull-down binding Z-score [4]: -0.0023

Sequence: UGCUCCUUGAACAGGAGGAGCA [hsa-mir-4708]
- pull-down binding Z-score [1]: -0.405
- pull-down binding Z-score (TO-N3 (biotin conjugate)): -0.683
- pull-down binding Z-score [2]: -0.535
- pull-down binding Z-score [3]: 1.09
- pull-down binding Z-score [4]: -0.48

Sequence: UUCAGAGUCAAUAUAAUUUUCUAG [hsa-mir-29a]
- pull-down binding Z-score [1]: 0.27
- pull-down binding Z-score (TO-N3 (biotin conjugate)): 0.485
- pull-down binding Z-score [2]: -0.467
- pull-down binding Z-score [3]: 0.0825
- pull-down binding Z-score [4]: 0.749

Sequence: AGAGUCCUGUUGUUGUAAGAUAGUGUCU [hsa-mir-550a-3]
- pull-down binding Z-score [1]: -0.265
- pull-down binding Z-score (TO-N3 (biotin conjugate)): -0.515
- pull-down binding Z-score [2]: -0.0681
- pull-down binding Z-score [3]: 0.441
- pull-down binding Z-score [4]: -0.56

Sequence: AAGUGGAGCAGGAAUGCGCUUUUCUCCACUG [hsa-mir-5187]
- pull-down binding Z-score [1]: 0.27
- pull-down binding Z-score (TO-N3 (biotin conjugate)): 0.567
- pull-down binding Z-score [2]: 0.231
- pull-down binding Z-score [3]: 1.93
- pull-down binding Z-score [4]: 0.299

Sequence: GGGUUCAAUAGAUUGCUUUAGCUGAAGCAAGCCU [hsa-mir-8054]
- pull-down binding Z-score [1]: 0.131
- pull-down binding Z-score (TO-N3 (biotin conjugate)): 0.00977
- pull-down binding Z-score [2]: -0.201
- pull-down binding Z-score [3]: -0.803
- pull-down binding Z-score [4]: 0.125

Sequence: GGCUGGCCCCCUGCUUCGUGCCCAUCC [hsa-mir-937]
- pull-down binding Z-score [1]: 0.127
- pull-down binding Z-score (TO-N3 (biotin conjugate)): 0.83
- pull-down binding Z-score [2]: 1.53
- pull-down binding Z-score [3]: -1.14
- pull-down binding Z-score [4]: 0.211

Sequence: CCCAGCCUUCCAGAGUUGGUGCCAGG [hsa-mir-4476]
- pull-down binding Z-score [1]: 0.0973
- pull-down binding Z-score (TO-N3 (biotin conjugate)): 1.14
- pull-down binding Z-score [2]: 1.11
- pull-down binding Z-score [3]: -0.593
- pull-down binding Z-score [4]: 0.892

Sequence: UUAACCUAAAAUGAGAAGGCUAA [hsa-mir-633]
- pull-down binding Z-score [1]: -0.223
- pull-down binding Z-score (TO-N3 (biotin conjugate)): -0.212
- pull-down binding Z-score [2]: -0.637
- pull-down binding Z-score [3]: -1.29
- pull-down binding Z-score [4]: -0.0885

Sequence: UUUUGAAAGUAACUUGGCGAAA [hsa-mir-548ad]
- pull-down binding Z-score [1]: -0.118
- pull-down binding Z-score (TO-N3 (biotin conjugate)): -0.0602
- pull-down binding Z-score [2]: -0.299
- pull-down binding Z-score [3]: 1.69
- pull-down binding Z-score [4]: -0.179

Sequence: GCAGCCUUGC [hsa-mir-4298]
- pull-down binding Z-score [1]: -0.244
- pull-down binding Z-score (TO-N3 (biotin conjugate)): 0.264
- pull-down binding Z-score [2]: 0.0238
- pull-down binding Z-score [3]: 0.364
- pull-down binding Z-score [4]: 0.177

Sequence: UGCUUUUUGUUUCUAACAAAGCA [hsa-mir-4679-2]
- pull-down binding Z-score [1]: -0.407
- pull-down binding Z-score (TO-N3 (biotin conjugate)): 0.0252
- pull-down binding Z-score [2]: -1.25
- pull-down binding Z-score [3]: -0.591
- pull-down binding Z-score [4]: 0.272

Sequence: UGUAAAAUGUAAUAACAUUUCUUAUGUUUAAAACACUUUACA [hsa-mir-4801]
- pull-down binding Z-score [1]: -0.401
- pull-down binding Z-score (TO-N3 (biotin conjugate)): -0.783
- pull-down binding Z-score [2]: -1.14
- pull-down binding Z-score [3]: -0.257
- pull-down binding Z-score [4]: -0.755

Sequence: CAGAGAUGAAAUUGGGACUCCUCU [hsa-mir-7157]
- pull-down binding Z-score [1]: 0.343
- pull-down binding Z-score (TO-N3 (biotin conjugate)): 0.499
- pull-down binding Z-score [2]: 0.835
- pull-down binding Z-score [3]: -0.282
- pull-down binding Z-score [4]: 0.189

Sequence: GGGUGAUACACAAGCCUGACCCUCCC [hsa-mir-6793]
- pull-down binding Z-score [1]: 0.55
- pull-down binding Z-score (TO-N3 (biotin conjugate)): 0.416
- pull-down binding Z-score [2]: 0.954
- pull-down binding Z-score [3]: -0.976
- pull-down binding Z-score [4]: 0.244

Sequence: CUGUCCUGGACUGGGGUCAGACUGUGCCCCGAGGAGAAGCAG [hsa-mir-922]
- pull-down binding Z-score [1]: -0.166
- pull-down binding Z-score (TO-N3 (biotin conjugate)): 0.794
- pull-down binding Z-score [2]: 1.47
- pull-down binding Z-score [3]: 0.368
- pull-down binding Z-score [4]: -0.2

Sequence: UUGUCUCCUCAAGUUGCGACGAGACAG [hsa-mir-4645]
- pull-down binding Z-score [1]: -0.451
- pull-down binding Z-score (TO-N3 (biotin conjugate)): -0.358
- pull-down binding Z-score [2]: -0.585
- pull-down binding Z-score [3]: -1.13
- pull-down binding Z-score [4]: -0.254
